# Measurements as given in IntAct's records for PubMed 29039417.
# B1: BBSome complex member BBS5 (Homo sapiens), Q8N3I7 (parent)
# chain: MSVLDALWEDRDVRFDLSAQQMKTRPGEVLIDCLDSIEDTKGNNGDRGRLLVTNLRILWHSLALSRVNVSVGYNCILNITTRTANSKLRGQTEALYILTKCNSTRFEFIFTNLVPGSPRLFTSVMAVHRAYETSKMYRDFKLRSALIQNKQLRLLPQEHVYDKINGVWNLSSDQGNLGTFFITNVRIVWHANMNDSFNVSIPYLQIRSIKIRDSKFGLALVIESSQQSGGYVLGFKIDPVEKLQESVKEINSLHKVYSASPIFGVDYEMEEKPQPLEALTVEQIQDDVEIDSDGHTDAFVAYFADGNKQQDREPVFSEELGLAIEKLKDGFTLQGLWEVMS
# partner: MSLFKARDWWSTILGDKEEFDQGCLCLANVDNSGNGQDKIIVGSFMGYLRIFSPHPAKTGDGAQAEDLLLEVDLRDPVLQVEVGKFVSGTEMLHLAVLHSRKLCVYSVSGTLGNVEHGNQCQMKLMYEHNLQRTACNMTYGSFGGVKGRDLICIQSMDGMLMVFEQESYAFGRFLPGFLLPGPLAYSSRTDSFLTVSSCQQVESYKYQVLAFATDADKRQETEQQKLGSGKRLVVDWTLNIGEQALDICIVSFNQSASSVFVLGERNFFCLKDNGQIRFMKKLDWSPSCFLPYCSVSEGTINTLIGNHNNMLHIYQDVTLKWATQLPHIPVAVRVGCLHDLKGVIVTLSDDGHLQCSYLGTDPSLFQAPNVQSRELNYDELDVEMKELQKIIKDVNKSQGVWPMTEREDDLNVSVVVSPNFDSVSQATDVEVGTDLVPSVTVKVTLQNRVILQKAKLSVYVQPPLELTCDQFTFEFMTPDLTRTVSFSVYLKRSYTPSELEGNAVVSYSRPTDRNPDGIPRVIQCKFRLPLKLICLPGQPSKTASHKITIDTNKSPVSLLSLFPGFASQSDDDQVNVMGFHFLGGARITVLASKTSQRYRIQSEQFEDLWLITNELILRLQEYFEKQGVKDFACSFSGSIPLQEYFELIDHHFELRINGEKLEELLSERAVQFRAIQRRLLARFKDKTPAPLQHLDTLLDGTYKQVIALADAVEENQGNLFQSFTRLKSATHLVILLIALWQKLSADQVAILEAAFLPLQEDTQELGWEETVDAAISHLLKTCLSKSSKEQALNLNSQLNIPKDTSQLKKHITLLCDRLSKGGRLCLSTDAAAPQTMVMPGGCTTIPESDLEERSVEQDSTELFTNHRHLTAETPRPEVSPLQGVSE
# B2: BBSome complex member BBS2 (Homo sapiens), Q9BXC9 (parent)
# chain: MLLPVFTLKLRHKISPRMVAIGRYDGTHPCLAAATQTGKVFIHNPHTRNQHVSASRVFQSPLESDVSLLSINQAVSCLTAGVLNPELGYDALLVGTQTNLLAYDVYNNSDLFYREVADGANAIVLGTLGDISSPLAIIGGNCALQGFNHEGSDLFWTVTGDNVNSLALCDFDGDGKKELLVGSEDFDIRVFKEDEIVAEMTETEIVTSLCPMYGSRFGYALSNGTVGVYDKTSRYWRIKSKNHAMSIHAFDLNSDGVNELITGWSNGKVDARSDRTGEVIFKDNFSSAIAGVVEGDYRMDGHIQLICCSVDGEIRGYLPGTAEMRGNLMDTSAEQDLIRELSQKKQNLLLELRNYEENAKAELASPLNEADGHRGIIPANTRLHTTLSVSLGNETQTAHTELRISTSNDTIIRAVLIFAEGIFTGESHVVHPSIHNLSSSICIPIVPPKDVPVDLHLKAFVGYRSSTQFHVFESTRQLPRFSMYALTSLDPASEPISYVNFTIAERAQRVVVWLGQNFLLPEDTHIQNAPFQVCFTSLRNGGHLHIKIKLSGEITINTDDIDLAGDIIQSMASFFAIEDLQVEADFPVYFEELRKVLVKVDEYHSVHQKLSADMADHSNLIRSLLVGAEDARLMRDMKTMKSRYMELYDLNRDLLNGYKIRCNNHTELLGNLKAVNQAIQRAGRLRVGKPKNQVITACRDAIRSNNINTLFKIMRVGTASS
# partner: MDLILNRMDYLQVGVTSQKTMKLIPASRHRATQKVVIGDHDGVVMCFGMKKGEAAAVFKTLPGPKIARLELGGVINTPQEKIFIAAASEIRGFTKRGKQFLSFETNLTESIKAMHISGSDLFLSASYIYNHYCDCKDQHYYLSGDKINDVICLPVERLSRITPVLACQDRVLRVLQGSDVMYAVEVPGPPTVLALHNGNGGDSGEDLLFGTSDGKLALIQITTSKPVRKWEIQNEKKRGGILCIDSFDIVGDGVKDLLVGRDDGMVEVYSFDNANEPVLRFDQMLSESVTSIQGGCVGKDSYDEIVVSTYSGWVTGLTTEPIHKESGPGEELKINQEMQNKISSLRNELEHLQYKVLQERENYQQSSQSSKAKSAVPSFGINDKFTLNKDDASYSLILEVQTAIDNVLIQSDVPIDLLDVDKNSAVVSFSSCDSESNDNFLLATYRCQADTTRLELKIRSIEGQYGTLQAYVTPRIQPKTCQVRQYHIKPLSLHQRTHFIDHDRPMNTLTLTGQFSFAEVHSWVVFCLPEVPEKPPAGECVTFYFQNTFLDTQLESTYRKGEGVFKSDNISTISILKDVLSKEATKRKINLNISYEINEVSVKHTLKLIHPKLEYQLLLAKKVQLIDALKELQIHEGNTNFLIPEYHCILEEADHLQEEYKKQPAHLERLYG
# Variants of: B1
# Details: with pthb1_human BBS9, Q3SYG4
row,Variant,effect of a mutation on the interaction
1,Q21E,with no effect
2,Q21A,with no effect
3,Q21K,with no effect
4,P26K,with no effect
5,P26A,with no effect
6,P26E,disrupting interaction strength
7,R11K,with no effect
8,R11E,disrupting interaction strength
9,R11A,disrupting interaction strength
10,R11W,disrupting interaction strength
11,M22K,disrupting interaction strength
12,M22E,disrupting interaction strength
13,M22A,disrupting interaction strength
14,D12E,with no effect
15,D12A,with no effect
16,D12K,disrupting interaction strength
17,D5K,with no effect
18,D5A,with no effect
19,D5E,with no effect
20,D10A,with no effect
21,D10E,with no effect
22,D10K,with no effect

row,Variant,effect of a mutation on the interaction
1,S18E,with no effect
2,S18K,with no effect
3,S18A,with no effect
4,Q20A,disrupting interaction strength
5,Q20K,with no effect
6,Q20E,with no effect
7,W8K,with no effect
8,W8E,with no effect
9,W8A,with no effect
10,R14K,with no effect
11,R14A,with no effect
12,R14E,disrupting interaction strength
13,V13K,disrupting interaction strength
14,V13E,disrupting interaction strength
15,V13A,disrupting interaction strength
16,L7A,with no effect
17,L7K,with no effect
18,L7E,with no effect
19,F15K,with no effect
20,F15A,disrupting interaction strength
21,F15L,disrupting interaction strength
22,F15E,disrupting interaction strength

row,Variant,effect of a mutation on the interaction
1,K23A,with no effect
2,K23E,with no effect
3,A19K,with no effect
4,A19E,with no effect
5,D16K,with no effect
6,D16A,with no effect
7,D16E,with no effect
8,D16S,disrupting interaction strength
9,S2K,with no effect
10,S2E,with no effect
11,S2A,with no effect
12,E28K,disrupting interaction strength
13,E28A,disrupting interaction strength
14,L4K,with no effect
15,L4A,with no effect
16,L4E,with no effect
17,T24A,with no effect
18,T24K,with no effect
19,T24E,with no effect
20,M1A,with no effect
21,M1K,with no effect
22,M1E,with no effect

row,Variant,effect of a mutation on the interaction
1,E9K,with no effect
2,E9A,with no effect
3,G27K,with no effect
4,G27E,disrupting interaction strength
5,G27A,disrupting interaction strength
6,G27R,disrupting interaction strength
7,A6E,with no effect
8,A6K,with no effect
9,V3A,with no effect
10,V3E,with no effect
11,V3K,with no effect
12,V29A,disrupting interaction strength
13,R25E,disrupting interaction strength
14,R25A,with no effect
15,R25K,disrupting interaction strength
16,L17R,disrupting interaction strength
17,L17E,disrupting interaction strength
18,L17A,disrupting interaction strength
19,L17K,disrupting interaction strength

# Variants of: B2
# Details: with BBS7, Q8IWZ6-2
row,Variant,effect of a mutation on the interaction
1,I621A,with no effect
2,A612E,with no effect
3,R403E,with no effect
4,F711E,with no effect
5,R643E,with no effect
6,P447E,disrupting interaction strength
7,R684E,with no effect
8,A631E,with no effect
9,A674K,with no effect
10,G326E,with no effect
11,S390E,with no effect
12,H399K,with no effect
13,M634A,with no effect
14,M634E,with no effect
15,L348A,with no effect
16,V429E,with no effect
17,E505A,with no effect
18,L383A,disrupting interaction strength
19,N619E,with no effect
20,N358A,with no effect
21,I412K,with no effect

row,Variant,effect of a mutation on the interaction
1,R325E,with no effect
2,L620A,with no effect
3,K599E,with no effect
4,N708E,with no effect
5,Q508K,with no effect
6,H470K,with no effect
7,F586E,with no effect
8,P432A,with no effect
9,Y355K,with no effect
10,N347E,with no effect
11,T400A,with no effect
12,Y648E,with no effect
13,N500E,with no effect
14,T555K,with no effect
15,N705E,with no effect
16,K344E,with no effect
17,T475K,with no effect
18,Q468L,disrupting interaction strength
19,L328E,with no effect
20,V511E,with no effect
21,A333K,with no effect

row,Variant,effect of a mutation on the interaction
1,T381K,with no effect
2,P690A,with no effect
3,Q516E,with no effect
4,L672A,with no effect
5,A361E,with no effect
6,A398E,with no effect
7,H604E,with no effect
8,Y589E,with no effect
9,Y589K,with no effect
10,D585K,with no effect
11,N692E,with no effect
12,F472E,with no effect
13,A492E,with no effect
14,G372K,with no effect
15,S611A,with no effect
16,E667A,with no effect
17,Q693E,with no effect
18,V533A,with no effect
19,D559E,with no effect
20,V389E,with no effect
21,A507E,with no effect

row,Variant,effect of a mutation on the interaction
1,I377R,disrupting interaction strength
2,F574A,with no effect
3,F535K,disrupting interaction strength
4,I577A,with no effect
5,L538K,with no effect
6,L538E,with no effect
7,L668A,with no effect
8,R622A,with no effect
9,R622K,with no effect
10,P452A,with no effect
11,L514E,with no effect
12,L337K,with no effect
13,K638A,with no effect
14,G688K,disrupting interaction strength
15,D454K,with no effect
16,S388K,with no effect
17,R632E,with no effect
18,L647A,disrupting interaction strength
19,I567E,with no effect

# Variants of: B2
# Details: with BBS7, Q8IWZ6-2
# Remark: another data set of the same source
row,Variant,effect of a mutation on the interaction
1,S365R,disrupting interaction strength
